# Reference: the DeepSol protein solubility set
# Assay: soluble on expression in E. coli; label from the status in PepcDB or PDB records
row,Sequence,soluble on expression in E. coli
1,MSSRKNFSRLTWFRKQRKAVVSSNDKKMPNGILEEQEQQRVMLLSRSPSGPKKFFPIPVEHLEEEIRVRSADDCKRFREEFNSLPSGHIQGTFELANKEENREKNRYPNILPNDHCRVILSQVDGIPCSDYINASYIDGYKEKNKFIAAQGPKQETVNDFWRMVWEQRSATIVMLTNLKERKEEKCYQYWPDQGCWTYGNIRVCVEDCVVLVDYTIRKFCIHPQLPDSCKAPRLVSQLHFTSWPDFGVPFTPIGMLKFLKKVKTLNPSHAGPIVVHCSAGVGRTGTFIVIDAMMDMIHSEQKVDVFEFVSRIRNQRPQMVQTDVQYTFIYQALLEYYLYGDTELDVSSLERHLQTLHSTATHFDKIGLEEEFRKLTNVRIMKENMRTGNLPANMKKARVIQIIPYDFNRVILSMKRGQEFTDYINASFIDGYRQKDYFMATQGPLAHTGEDFWRMVWEWKSHTIVMLTEVQEREQDKCYQYWPTEGSVTHGDITIEIKSDTLSEAISVRDFLVTFKQPLARQEEQVRMVRQFHFHGWPEVGIPAEGKGIIDLIAAVQKQQQQTGNHPITVHCSAGAGRTGTFIALSNILERVKAEGLLDVFQAVKSLRLQRPHMVQTLEQYEFCYKVVQDFIDIFSDYANFK,soluble
2,GMKTSVKFETIFPLTTAPLIQCITNEITCESMANALLYIDAKPIMADDPREFPQMFQQTSALVLNLGHLSQEREQSLLAASDYARQVNKLTVVDLVGYGASDIRNEVGEKLVHNQPTVVKGNLSEMRTFCQLVSHGRGVDGSPLDQSEEAIEELIQALRQQTQKFPQTVFLATGIQDVLVSQEQVIVLQNGVPELDCFTGTGDLVGALVAALLGEGNAPMTAAVAAVSYFNLCGEKAKTKSQGLADFRQNTLNQLSLLMKEKDWFEAVKGRVL,soluble
3,MTVIQTHGLTKRYGRVVAVEDLNLSVREGEVYGLLGPNGSGKTTTILMLLGLTEPTSGEARVLGFDPMREPLKVKSRVGYLPDQVGFYGELSAWENLRYTTRLLGLPDKEAEARIEEVLKRMGLWEVRDRKVAAFSRGMRQRLGLAEVLLKRPKVAILDEPTLGLDPEAAREFLDLIKGLKAEGITVLLSSHLLHQVQEVCDRVGLFHKGRLALEGTVAELAHRVLGGQYEILLEGAPGLEGALEAVEGVSRVEAEGGRYRVLATRDLRPELARLVVERGPLYALSLRQPSLDEIYAHYFKEVAHAA,soluble
4,MTIGIIGSGALGSGIARILASKGISAIISNSRGPESLASLVRELGGSIKAGTAEEAARADIVFAAVRWVDAEKVLSSLPAWEGRIVIDATNPVEFIDPDSPDANDPTNPLAAYGIKAVDLHGKYSSEIFRQFVPGARVVKAFNHLDANVFSAPEVTGGKRVLFYSGDDAAAKTEVRKIIEDTGFVPVDLGTLDVGGPLASLPFGPLAAQNFIRVLEHHHHHH,soluble
5,VIIGLHNPKSPTNVGAVMRAAGCYNATQVRYNGTRYARAVKFQTDTQNSHERIGLVEMDDLTAGLDSEVKIVCVELAVGATALPHFTHPEQAIYLFGPEDGSLPQEVVDQAHYVVYVPTHGCMNLAATVNVVLYDRLAKSL,not soluble
6,VAAAPRSPEDRRAQILDVAVRLLETVPFDDLSMDQVAAEAGVSPPLLFHYFKNKQGFRNAVLEASASELQRRMTPDAALPVSGQLRAGVETFADAVIEHPTIYLAVMRMAGSGDERMRQIYRGMRRTFTRWIGASLAEFGVPTTPALEAAISGWQAFMEEIVLSWLDEPTMDRTDMIDLCERAFYHLLPAAGVDVDALDVTR,soluble
7,MGSDKIHHHHHHNSALEWLQRAASAAKEQNYSGIYVYHHGDEVEVLRVLHRNDGRREQEKTEVMDGTQRHFLRVNSDVYCHLADGKQVRLERNASRRFFPAFLPARAAGLAELYEVKLGGVERVAGRPCQVVMLEPRDGYRHAFQLWLDSRTGLPLKSRIVNSDGEVVSMFVFSEVQIGRPPDASLFRNELAGKQVQQVSLGQRIDLPWSVTPPPGFERVQEAVRTLPGRNTPVTHLVFSDGLSVLSMFIEPADPGVPSLQGLSAEGAIGVYARALDGHTITTVGEVPNLALIETGNSVRRK,not soluble
8,MGSDKIHHHHHHMERQARIIAFYATNENVGKSTLSIAMANELAHLGKKVLYVEADQVRPSFAVGTGLSHDSKNILELVRKENEYNLSQYICTKQDLLERKMNPRLMQKLHDKMDFLVFPSGYNLAQFPEIQNKELFVTTFIESLVDTEYDSIILSVPTELSEVLSYPILYQSDLVIHVLNGNPRGAIAIKRELQLLEEAKLTLPRMIHVLNMADEDYVEDIEKLSSQKIAVTIPYDRDRTSYEWGMQFGSPQINTKVHHIMEAAGLDIPTQHTSSMKKGLFGLRN,not soluble
9,MGSDKIHHHHHHMDSSCSPKHGWFDSVAESYAQQRPYYPESLFTWISSKAASHQRCWDVACGSGQASLGLARHFDRVDASDLSPAQVAAAPAHSNIHYQVAAAEDSGFPNACMDAIVVAAAIHWLDVPRFNEEALKVARPGGLMVWVGYDPPQGAPPALQLWLDQLYSERLSSWWPPQRHHVDNHYQNLPFPTISKTLPQELCISLKWSCEQLIGYIGTWSALRKATQEGHDLLPQLSMELQRLWPADQKTIPLIFPLMGRWGYLAR,not soluble
10,ILGYSYGYNGMEANVSKSDYEKHMSDLDTKKIKQDIKKAEKEADITIVMPQMGIEYQKKPTTEQVMLYHSMIKWGADIIFGGHPHVVEPSEVIKKDGQKKFIIYSMGNFISNQRLETVDDIWTE,not soluble
11,MPRPSLRRGEETSGARSLHEIAPPAEKAVRKPLNLLPFRKDTPMTKDSYFHKSRAGVAGAPLFVLLHGTGGDENQFFDFGARLLPQATILSPVGDVSEHGAARFFRRTGEGVYDMVDLERATGKMADFIKANREHYQAGPVIGLGFSNGANILANVLIEQPELFDAAVLMHPLIPFEPKISPAKPTRRVLITAGERDPICPVQLTKALEESLKAQGGTVETVWHPGGHEIRSGEIDAVRGFLAAYGG,soluble
12,VQASDRTWQSNFIRRWYFTETVEYRPLVKYDASMSWDERTVSALEGAFRSEVRARRVNGPHRDVIVSLDGAEFLVRWLTTGWPRQVAEALHATSRPDILAAPTMSPGARKAAHDAGVGWVDESGAADIHYRNTSTGTTLVIETKGAPPAPLDARIGWRRATLAVCEALLANIAGPTVASVVEATGLSMGSSAQALKFLEKNGHLASATARGPKSARLIVDRDALLDAYAEAADKLRSPISISTGVLWRDPTAGVVKAGQLWDAAGIEWAATSALSASLLAPMQTEIAPMEIYVPGRSWSDLRRAAMAAGLQEIAGGRLILRFFPTPACARLTEQNLQGFRSMLWPRVYADLRTAGVRGEDAAEHLREAMTK,not soluble
13,MGSDKIHHHHHHMEKQKEVQKEYEEYQYMLDTETWKKELSQFKLSSSEKISKNPKVSIIIANYNNAPYLKKMMDSLVQQTIGIEQLQVMFIDDCSTDHSLKVIEPYLERYPNIEIYQLLENTGGAHGPRNVGIVNARGEYSVFLDADDWYDLNALKYLSDLLDDSHDDFAVSGLIQSTDGHLMLKSKPYYVDGSFKNRSIQELPAEFYGWLGPQAIMLRTSLIHNNNLHFVNQRVADDVLFFYEAMRFSKTITQGERLTTYLNRDADNESLSKSINRTFMLSWLRALSYINQQFPDDLSKERMLARRLEWLIYDFCIRRNTGYPFSKRRLQDFKVQMDQYLGELNFDPSPYFRSDVRQIIWTFLQTNDIDGLYWFIQCQSIRWVLVNRFGYVSKTERSYYYPRLLKRFPAVRMNAYAEATQREGNTLSLNVYTHQKITGFEIKELKNPFETRQRLAFKKISETSYQVELPEKFSNKESRFTIVFDNYLEIGVKDFSKFFA,not soluble
14,MGSDKIHHHHHHMPGWAGYYLEFHGNAYSAPFSADIYINVAYPYDGKLVELGGSILGHNQYFYVKSPYTFPDNVHNVDGYVVEWFDEDWQKWVLWHVSYKPALQVIGCPYVSTWNGIEYVPENTVLVESEILKPRKHMDLTDYYLINNSHTIRENIYSIQLQEFEQDTSYIDSIELLVVDYPQGLELSLDPQGNIVLYIPIHTRLNTRFTTEIASSNVNRLKTDLVIVSPYVKTSYSFKVNKVYENKSVESIHLYPRMFPYRYALFTDKDISKLKMELNDHKLYSIEYGIPVNASYHIVKEKPLLATSDIGGEITEELLEDDGHYAVLTPGDNITLNFKVPPALSSRMKRALILVIKGFYVQKPPTLTKDAVRVIYVPEINGYLFVPLLETYDEILSIMWDFGDGTTSDFFVPFHVYKQGKYKGSLKVKYLNGKTLTIPFYWGG,not soluble
15,MAAGSMDGIFRNIFEGCISSCDSSIQRRPYHKNCGCALHERSRGGGSATPCRHGRSEVVMFPIQRSWSEGNSLALHLASSSSSSNLQSLSSSSSISTLASLSSTVSDIDSPI,soluble
16,MSLFIRDNHLHTHHSYDSDANFTDYLTHFDGEIVTTEHYDLSNPYTKQDDVPDYESYSHEVEKLNLKYGNRIKRGIEIGYYQPRESDILDFLDGKDYDLKLLSVHHNGVNDYLDDEVAEMDKANIIQEYLDKLEYAVGRVDADVLAHFDYGFRLFDVTVDELKAYENQLKRIFKKMIANDLAFELNSKSMYLYHHEGLYRYVLALVKDLGCRKYSIGSDGHKLEHFRLNFDKIQELLREFEITEDMEGHHHHHH,not soluble
17,METTFALLNFKESLCYIYPPTEPVRYVSSIVALNVHSPNGTGDWHSAKALSDRAYPEKFYIYGENQERNTNHLFGDNGIIDGTDRLNKMGYFPENIPVWLADHPRACVDYLYTAVLQTGSIGRVILDDWFPSDEDKQSVYDLLNQIEPHLNTQEWENLQLWKRKNPIM,not soluble
18,VKTGLYSLLGLIMRSALIDNFIESLNRSKYFHVVCSDPKPICNFIEKNLVRGATIVNAKGSFTGDNKYIILTVLSPSQAVKLRNFIKENSPGAFLLISNTSEIIGKGFHSV,not soluble
19,EAPLLYGDSSPEIVLVGHGSTYGVIKEIVDIFSKDKKIAMMHFSQIYPFPERDRFDYIEFLKNANLVISVENNATGQFAKLMRAETGFEFARQILKYDGRPFTIEKLKEEIDACL,not soluble
20,MSLNAQTLLANVAELVKTKLKPLVDDIDRKGYYPEAFMRELGAIGAVGIEAEGGNGLGLATRIAVLREIGKECGATSFSAWCQAACAWYLHQTPNQAVKDKYLADILQGKVLAGTGMSNTVKHLAGIEKHNLQAECVEGGYTVNGALPWVSNIGEDHIWANTAQIGGGYVMFITGGQREGVSLQNCPEFCALEGTHTFSLNFKDVFIPDEDIIAAPEQFAGYIQSIKAGFILLQIGIGAGVIDGSLGIIRLVNVVNAEVNSYLDDGYDSLKARLDGAWAETERLAGLAWDNTPDNLATLKLREAAAVLALAAAQSAALHSGAKGYLMRSPAQRRVGEAMFVAIVTPAIKHLCKEIAAIEAAKEGHHHHHH,not soluble
21,ELLVVTGMSGAGKSLVIQSLEDMGFFCVDNLPPVLLPKFVELMAQGNPSLQKVAIAIDLRGKELFKSLVKEIDIIKSRNDVILDVMFLEAKTEKIISRYKESRRAHPLNEQGQRSLIDAINEEREHLSEIRSIANYVIDTTKLKPKELKQRISKFYLDENFETFTINVTSFGFKHGIQMDADLVFDVRFLPNPYYVEELRPFTGLDEPVYNYVMKWKETQIFFDKLTDLLKFMIPGYKKEGKSQLVIAIGCTGGQHRSVALAKRLAEYLNEIFEYNVYVHHRDAHIE,not soluble
22,MSLTPDLLNFKKGWMSILDEPGEPPSPSLTTTSTSQWKKHWFVLTDSSLKYYRDSTAEEADELDGEIDLRSCTDVTEYAVQRNYGFQIHTKDAVYTLSAMTSGIRRNWIEALRKTVRPTSAPDVTEGHHHHHH,soluble
23,SSSESEKDKERLIQAAKMFFFHVQDLASVINTLTELFSRSMNTQILLMAVRNNSYIKDFFEQMLKIFKEMQSVVDARHDKIQKESLCSKVAMAMCSVVQKSTNVEELHQSAKEVFKSAHTPVIISVLNSSNILGSLESSLSHLMKFPIMNLQLSDFYTEDTKEQSDVTTSERTRSPPGSSKTTMIDTLKKLQDVLKTEDSKNPTKSAADLLEQIVKAMGPILEILQKAIKTMEMNISVFKKASDK,soluble
